Measurements: the Human Domainome abundance scans (Beltran et al. 2025)
± gives the uncertainty stated by the source.

B1: Ankyrin-2, residues 3571 to 3650; numbered along this chain, Q01484 (parent)
chain: ERLAYIADHLGFSWTELARELDFTEEQIHQIRIENPNSLQDQSHALLKYWLERDGKHATDTNLVECLTKINRMDIVHLME

Variants of: B1
Assay: abundance fitness (aPCA) (normalised: wild type 0, dead -1); higher = more abundant; growth selection in yeast, the domain comes from the species named
Settings: Homo sapiens

| Variant | abundance fitness |
| --- | --- |
| F12T | -0.031 ± 0.08 |
| F12V | -0.045 ± 0.076 |
| F12E | -0.191 ± 0.15 |
| F12I | 0.019 ± 0.17 |
| F12K | -0.143 ± 0.14 |
| F12G | 0.005 ± 0.068 |
| F12H | -0.128 ± 0.2 |
| F12A | 0.038 ± 0.079 |
| F12S | 0.063 ± 0.096 |
| F12R | -0.041 ± 0.063 |
| F12C | -0.04 ± 0.13 |
| F12Q | -0.132 ± 0.25 |
| F12M | 0.028 ± 0.16 |
| F12Y | -0.195 ± 0.25 |
| F12L | -0.068 ± 0.072 |
| F12D | -0.312 ± 0.24 |
| F12N | -0.158 ± 0.2 |
| F12P | -0.168 ± 0.13 |
| F12W | 0.005 ± 0.092 |
| L10M | -0.205 ± 0.11 |
| L10V | -0.014 ± 0.08 |
| L10H | -0.948 ± 0.37 |
| L10G | -0.704 ± 0.051 |
| L10R | -1.09 ± 0.16 |

| Variant | abundance fitness |
| --- | --- |
| L10S | -0.668 ± 0.07 |
| L10D | -0.509 ± 0.2 |
| L10P | -0.819 ± 0.11 |
| L10K | -0.911 ± 0.37 |
| L10A | -0.64 ± 0.099 |
| L10Y | -0.464 ± 0.14 |
| L10C | -0.184 ± 0.11 |
| L10W | -0.498 ± 0.13 |
| L10Q | -0.791 ± 0.28 |
| G11S | 0.015 ± 0.054 |
| G11L | -0.117 ± 0.058 |
| G11H | -0.111 ± 0.15 |
| G11A | -0.058 ± 0.064 |
| G11F | -0.039 ± 0.12 |
| G11P | -0.536 ± 0.076 |
| G11D | -0.052 ± 0.12 |
| G11Y | -0.123 ± 0.18 |
| G11K | -0.054 ± 0.13 |
| G11M | -0.223 ± 0.14 |
| G11N | 0.336 ± 0.39 |
| G11I | -0.271 ± 0.28 |
| G11R | -0.074 ± 0.063 |
| G11Q | -0.006 ± 0.079 |
| G11C | -0.106 ± 0.092 |

| Variant | abundance fitness |
| --- | --- |
| G11T | -0.141 ± 0.072 |
| G11W | -0.277 ± 0.099 |
| L3E | -0.289 ± 0.23 |
| L3K | -0.179 ± 0.11 |
| L3V | 0.005 ± 0.089 |
| L3F | 0.143 ± 0.075 |
| L3N | -0.074 ± 0.26 |
| L3P | -0.215 ± 0.064 |
| L3M | 0.028 ± 0.095 |
| L3R | -0.077 ± 0.051 |
| L3Y | -0.155 ± 0.2 |
| L3Q | -0.031 ± 0.076 |
| L3S | 0.043 ± 0.069 |
| L3T | -0.019 ± 0.075 |
| L3A | -0.164 ± 0.065 |
| L3W | -0.117 ± 0.05 |
| L3I | 0.05 ± 0.24 |
| L3H | -0.038 ± 0.13 |
| L3C | -0.086 ± 0.22 |
| L3G | -0.181 ± 0.11 |
| I6V | -0.126 ± 0.46 |
| I6K | -0.807 ± 0.45 |
| I6P | -0.412 ± 0.16 |
| I6S | -0.642 ± 0.23 |

| Variant | abundance fitness |
| --- | --- |
| I6W | -0.485 ± 0.22 |
| I6R | -0.717 ± 0.26 |
| I6N | -0.6 ± 0.24 |
| R2G | -0.208 ± 0.34 |
| R2D | 0.107 ± 0.35 |
| R2S | 0.026 ± 0.17 |
| R2W | 0.056 ± 0.24 |
| R2P | -0.454 ± 0.39 |
| R2V | 0.024 ± 0.23 |
| A4N | -0.024 ± 0.11 |
| A4M | 0.004 ± 0.078 |
| A4R | -0.007 ± 0.043 |
| A4D | 0.039 ± 0.084 |
| A4F | 0.129 ± 0.068 |
| A4H | 0.016 ± 0.067 |
| A4L | -0.058 ± 0.04 |
| A4T | 0.109 ± 0.048 |
| A4W | -0.11 ± 0.061 |
| A4E | -0.017 ± 0.054 |
| A4Y | -0.075 ± 0.1 |
| A4K | -0.029 ± 0.08 |
| A4G | 0.052 ± 0.035 |
| A4P | -0.071 ± 0.029 |
| H9R | -0.032 ± 0.22 |

| Variant | abundance fitness |
| --- | --- |
| H9G | -0.025 ± 0.2 |
| H9P | -0.268 ± 0.17 |
| H9Y | -0.409 ± 0.4 |
| H9A | -0.113 ± 0.24 |
| H9K | -0.232 ± 0.34 |
| H9C | 0.006 ± 0.4 |
| H9V | -0.043 ± 0.38 |
| H9L | -0.02 ± 0.2 |
| H9D | 0.021 ± 0.088 |
| H9T | -0.33 ± 0.24 |
| Y5M | -0.559 ± 0.43 |
| Y5W | -0.143 ± 0.26 |
| Y5H | 0.013 ± 0.28 |
| Y5V | -0.084 ± 0.19 |
| Y5R | -0.505 ± 0.32 |
| Y5A | 0.066 ± 0.14 |
| Y5L | 0.096 ± 0.29 |
| Y5G | -0.231 ± 0.45 |
| Y5P | -0.019 ± 0.17 |
| Y5N | 0.386 ± 0.43 |
| Y5C | 0.137 ± 0.17 |
| W14G | -0.978 ± 0.13 |
| W14M | -0.394 ± 0.18 |
| W14Q | -0.999 ± 0.43 |

| Variant | abundance fitness |
| --- | --- |
| W14P | -0.958 ± 0.19 |
| W14A | -0.572 ± 0.089 |
| W14H | -0.842 ± 0.43 |
| W14K | -1 ± 0.41 |
| W14L | -0.268 ± 0.077 |
| W14R | -0.994 ± 0.16 |
| W14E | -1.13 ± 0.25 |
| W14N | -0.348 ± 0.23 |
| W14F | -0.199 ± 0.17 |
| W14C | -0.63 ± 0.13 |
| A7E | -0.265 ± 0.21 |
| A7G | 0.12 ± 0.28 |
| A7Q | -0.089 ± 0.35 |
| A7T | 0.029 ± 0.15 |
| A7P | -0.36 ± 0.18 |
| A7W | -0.053 ± 0.24 |
| A7K | -0.041 ± 0.25 |
| A7S | 0.052 ± 0.33 |
| A7R | 0.087 ± 0.48 |
| A7L | -0.008 ± 0.11 |
| A7M | -0.045 ± 0.25 |
| S13M | -0.129 ± 0.18 |
| S13F | -0.036 ± 0.1 |
| S13V | -0.214 ± 0.099 |

| Variant | abundance fitness |
| --- | --- |
| S13W | -0.17 ± 0.094 |
| S13C | -0.25 ± 0.19 |
| S13K | -0.224 ± 0.14 |
| S13L | -0.306 ± 0.11 |
| S13A | -0.097 ± 0.081 |
| S13Y | -0.228 ± 0.2 |
| S13R | -0.077 ± 0.084 |
| S13G | -0.035 ± 0.074 |
| S13Q | 0.059 ± 0.17 |
| S13P | -0.291 ± 0.11 |
| D8I | -0.237 ± 0.41 |
| D8K | -0.006 ± 0.17 |
| D8V | -0.232 ± 0.11 |
| D8R | 0.031 ± 0.11 |
| D8A | 0.034 ± 0.18 |
| D8T | 0.088 ± 0.21 |
| D8E | -0.075 ± 0.46 |
| D8P | 0.011 ± 0.12 |
| D8G | -0.116 ± 0.12 |
| D8W | -0.342 ± 0.39 |
| D8S | 0.051 ± 0.17 |
| D8Q | 0.234 ± 0.26 |
| D8L | 0.052 ± 0.09 |
